Measured values as given in patent publication US20090178146.

Assays:
[1] = system: GST-fused peptide corresponding to the SP-3 motif (amino acids 264-295) of NFAT1, wild type
[2] = system: GST-fused SP-3 peptide of NFAT1 (amino acids 264-295) with Ser>Ala substitutions in the serines phosphorylated in cells

recombinant DYRK1A protein kinase (Upstate Biotechnology), bacterially expressed
in vitro kinase assay with recombinant kinase, phosphorylation of GST-peptide [1]: DYRK2 and DYRK1A both displayed strong and selective kinase activity towards the SP-3 motif of NFAT1
in vitro kinase assay with recombinant kinase, phosphorylation of GST-peptide [2]: neither kinase phosphorylated an SP-3 peptide with Ser>Ala substitutions in the specific serine residues known to be phosphorylated in cells
